From article PMC9482650, “Quantitative fragmentomics allow affinity mapping of interactomes” (Nature Communications, 2022)

Tests used:
Assay in all cases: holdup assay
Set-up in all cases: key: below the threshold = too weak to quantify, mostly under pKd 3.1 to 4
DFNB31_1, Q9P202 = target: T1, DFNB31_1, Q9P202
T1 sequence (Q9P202 135-233, limits assumed, looked up): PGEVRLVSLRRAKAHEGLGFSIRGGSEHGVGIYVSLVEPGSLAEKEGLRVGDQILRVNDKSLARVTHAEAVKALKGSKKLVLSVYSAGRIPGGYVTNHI

FRMPD1, Q5SYB0 = target: T2, FRMPD1, Q5SYB0
T2 sequence (Q5SYB0 52-145, limits assumed, looked up): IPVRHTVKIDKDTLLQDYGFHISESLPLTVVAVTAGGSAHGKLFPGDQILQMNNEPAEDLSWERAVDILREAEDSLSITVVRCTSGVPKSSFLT

LRRC7, Q96NW7 = target: T3, LRRC7, Q96NW7
T3 sequence (Q96NW7 1440-1537, limits assumed, looked up): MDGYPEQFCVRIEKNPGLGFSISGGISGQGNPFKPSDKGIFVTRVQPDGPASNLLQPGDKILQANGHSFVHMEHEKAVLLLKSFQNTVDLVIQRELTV

IL16_4, Q14005 = target: IL16_4, Q14005
IL16_4, Q14005, sequence (Q14005 1229-1329): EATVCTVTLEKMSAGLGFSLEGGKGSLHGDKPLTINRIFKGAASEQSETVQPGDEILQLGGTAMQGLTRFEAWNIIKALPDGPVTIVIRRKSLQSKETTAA

NHERF3_3, Q5T2W1 = target: T4, NHERF3_3, Q5T2W1
T4 sequence (Q5T2W1 238-333, limits assumed, looked up): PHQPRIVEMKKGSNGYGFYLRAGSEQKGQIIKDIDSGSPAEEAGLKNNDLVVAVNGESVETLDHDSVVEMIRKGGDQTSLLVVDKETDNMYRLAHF

MAGI2_2, Q86UL8 = target: MAGI2_2, Q86UL8
MAGI2_2, Q86UL8, sequence (Q86UL8 410-522): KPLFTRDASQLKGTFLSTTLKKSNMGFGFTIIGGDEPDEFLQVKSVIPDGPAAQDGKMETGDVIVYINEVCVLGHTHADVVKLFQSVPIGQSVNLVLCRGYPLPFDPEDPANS

Inadl_5, Q8NI35 = target: Inadl_5, Q8NI35
Inadl_5, Q8NI35, sequence (Q8NI35 673-780): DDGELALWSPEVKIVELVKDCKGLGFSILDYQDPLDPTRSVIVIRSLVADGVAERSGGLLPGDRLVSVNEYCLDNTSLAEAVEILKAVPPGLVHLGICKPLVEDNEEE

DLG1_2, Q12959 = target: DLG1_2, Q12959
Inadl_2, Q8NI35 = target: Inadl_2, Q8NI35
Inadl_2, Q8NI35, sequence (Q8NI35 238-335): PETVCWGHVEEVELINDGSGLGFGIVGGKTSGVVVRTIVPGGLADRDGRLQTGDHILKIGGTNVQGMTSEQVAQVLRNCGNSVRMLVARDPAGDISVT

FRMPD4, Q14CM0 = target: FRMPD4, Q14CM0
FRMPD4, Q14CM0, sequence (Q14CM0 67-160): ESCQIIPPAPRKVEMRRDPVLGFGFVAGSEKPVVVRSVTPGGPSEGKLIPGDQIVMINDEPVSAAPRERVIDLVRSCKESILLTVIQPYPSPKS

MAGI2_3, Q86UL8 = target: MAGI2_3, Q86UL8
MAGI2_3, Q86UL8, sequence (Q86UL8 600-682): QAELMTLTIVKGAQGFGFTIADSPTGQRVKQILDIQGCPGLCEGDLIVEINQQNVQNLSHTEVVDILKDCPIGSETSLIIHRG

HTRA2, O43464 = target: HTRA2, O43464
HTRA2, O43464, sequence (O43464 355-458): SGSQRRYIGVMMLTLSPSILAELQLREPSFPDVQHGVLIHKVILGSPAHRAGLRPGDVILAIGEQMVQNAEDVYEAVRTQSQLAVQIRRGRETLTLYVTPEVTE

DLG1_1, Q12959 = target: DLG1_1, Q12959
APBA2_1, Q99767 = target: T5, APBA2_1, Q99767
T5 sequence (Q99767 563-664, limits assumed, looked up): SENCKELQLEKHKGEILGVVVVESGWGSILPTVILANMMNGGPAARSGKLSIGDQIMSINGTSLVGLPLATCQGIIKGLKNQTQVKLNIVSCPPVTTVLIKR

GRIP1_7, Q9Y3R0 = target: T6, GRIP1_7, Q9Y3R0
T6 sequence (Q9Y3R0 999-1096, limits assumed, looked up): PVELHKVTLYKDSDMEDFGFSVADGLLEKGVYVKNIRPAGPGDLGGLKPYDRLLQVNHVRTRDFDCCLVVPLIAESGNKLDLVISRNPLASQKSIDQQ

DLG2_3, Q15700 = target: DLG2_3, Q15700
NHERF3_1, Q5T2W1 = target: T7, NHERF3_1, Q5T2W1
T7 sequence (Q5T2W1 4-100, limits assumed, looked up): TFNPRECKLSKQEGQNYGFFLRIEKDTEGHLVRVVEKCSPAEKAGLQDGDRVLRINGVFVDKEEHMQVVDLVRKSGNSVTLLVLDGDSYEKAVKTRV

FRMPD3, Q5JV73 = target: FRMPD3, Q5JV73
FRMPD3, Q5JV73, sequence (Q5JV73 12-100): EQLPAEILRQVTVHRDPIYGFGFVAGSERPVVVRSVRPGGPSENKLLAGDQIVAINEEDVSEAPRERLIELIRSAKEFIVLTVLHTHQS

GRIP2_7, Q9C0E4 = target: GRIP2_7, Q9C0E4
GRIP2_7, Q9C0E4, sequence (Q9C0E4 934-1023): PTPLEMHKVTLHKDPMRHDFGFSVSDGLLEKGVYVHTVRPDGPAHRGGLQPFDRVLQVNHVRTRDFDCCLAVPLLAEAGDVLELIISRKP

APBA3_1, O96018 = target: T8, APBA3_1, O96018
T8 sequence (O96018 389-490, limits assumed, looked up): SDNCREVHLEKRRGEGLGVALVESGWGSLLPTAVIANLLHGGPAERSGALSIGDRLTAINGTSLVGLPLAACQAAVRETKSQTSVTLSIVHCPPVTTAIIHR

APBA1_1, Q02410 = target: T9, APBA1_1, Q02410
T9 sequence (Q02410 651-752, limits assumed, looked up): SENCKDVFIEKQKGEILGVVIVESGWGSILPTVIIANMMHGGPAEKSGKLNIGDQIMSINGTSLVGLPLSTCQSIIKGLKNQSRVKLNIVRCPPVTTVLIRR

APBA1_2, Q02410 = target: T10, APBA1_2, Q02410
T10 sequence (Q02410 742-832, limits assumed, looked up): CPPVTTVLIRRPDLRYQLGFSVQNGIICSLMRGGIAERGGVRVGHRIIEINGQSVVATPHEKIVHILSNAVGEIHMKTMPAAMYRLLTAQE

GRID2IP_1, A4D2P6 = target: GRID2IP_1, A4D2P6
GRID2IP_1, A4D2P6, sequence (A4D2P6 1-87): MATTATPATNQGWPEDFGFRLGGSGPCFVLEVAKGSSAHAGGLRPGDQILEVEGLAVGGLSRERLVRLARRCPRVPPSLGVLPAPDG

PTPN13_1, Q12923 = target: T11, PTPN13_1, Q12923
T11 sequence (Q12923 1088-1188, limits assumed, looked up): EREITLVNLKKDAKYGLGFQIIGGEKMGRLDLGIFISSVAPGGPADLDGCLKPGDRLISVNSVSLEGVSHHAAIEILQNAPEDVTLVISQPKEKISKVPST

NHERF3_4, Q5T2W1 = target: T12, NHERF3_4, Q5T2W1
T12 sequence (Q5T2W1 373-468, limits assumed, looked up): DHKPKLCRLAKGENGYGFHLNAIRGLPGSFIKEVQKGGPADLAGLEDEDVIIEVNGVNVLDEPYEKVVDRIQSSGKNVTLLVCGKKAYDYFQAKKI

DLG1_3, Q12959 = target: DLG1_3, Q12959
[1] = plain residues with an end cap or a label only (N-terminal biotin on a linker: ado-ado)
[2] = plain residues with an end cap or a label only (N-terminal biotin on a linker: (peg)3)

B1: TANC1, Q9C0D5 (peptide)
chain: PKRSFIESNV
pKd (DFNB31_1, Q9P202; [1]): 3.83
pKd (FRMPD1, Q5SYB0; [1]): below the threshold
pKd (LRRC7, Q96NW7; [1]): 4.61
pKd (IL16_4, Q14005; [1]): below the threshold
pKd (NHERF3_3, Q5T2W1; [1]): below the threshold
pKd (MAGI2_2, Q86UL8; [1]): 4.81
pKd (Inadl_5, Q8NI35; [1]): below the threshold
pKd (DLG1_2, Q12959; [1]): 4.96
pKd (Inadl_2, Q8NI35; [1]): below the threshold
pKd (FRMPD4, Q14CM0; [1]): below the threshold
pKd (MAGI2_3, Q86UL8; [1]): 3.98
pKd (HTRA2, O43464; [1]): below the threshold
pKd (DLG1_1, Q12959; [1]): 4.69
pKd (APBA2_1, Q99767; [1]): below the threshold
pKd (GRIP1_7, Q9Y3R0; [1]): below the threshold
pKd (DLG2_3, Q15700; [1]): 4.28
pKd (NHERF3_1, Q5T2W1; [1]): 4.3
pKd (FRMPD3, Q5JV73; [1]): below the threshold
pKd (GRIP2_7, Q9C0E4; [1]): below the threshold
pKd (APBA3_1, O96018; [1]): below the threshold
pKd (APBA1_1, Q02410; [1]): below the threshold
pKd (APBA1_2, Q02410; [1]): 3.68
pKd (GRID2IP_1, A4D2P6; [1]): below the threshold
pKd (PTPN13_1, Q12923; [1]): below the threshold
pKd (NHERF3_4, Q5T2W1; [1]): below the threshold
pKd (DLG1_3, Q12959; [1]): 4.32

B2: CES3, Q6UWW8 (peptide)
chain: QKNRKAQEDL
pKd (DFNB31_1, Q9P202; [1]): below the threshold
pKd (FRMPD1, Q5SYB0; [1]): below the threshold
pKd (LRRC7, Q96NW7; [1]): below the threshold
pKd (IL16_4, Q14005; [1]): 3.63
pKd (NHERF3_3, Q5T2W1; [1]): below the threshold
pKd (MAGI2_2, Q86UL8; [1]): below the threshold
pKd (Inadl_5, Q8NI35; [1]): below the threshold
pKd (DLG1_2, Q12959; [1]): below the threshold
pKd (Inadl_2, Q8NI35; [1]): below the threshold
pKd (FRMPD4, Q14CM0; [1]): below the threshold
pKd (MAGI2_3, Q86UL8; [1]): 3.83
pKd (HTRA2, O43464; [1]): below the threshold
pKd (DLG1_1, Q12959; [1]): below the threshold
pKd (APBA2_1, Q99767; [1]): below the threshold
pKd (GRIP1_7, Q9Y3R0; [1]): below the threshold
pKd (DLG2_3, Q15700; [1]): 3.65
pKd (NHERF3_1, Q5T2W1; [1]): below the threshold
pKd (FRMPD3, Q5JV73; [1]): below the threshold
pKd (GRIP2_7, Q9C0E4; [1]): below the threshold
pKd (APBA3_1, O96018; [1]): below the threshold
pKd (APBA1_1, Q02410; [1]): below the threshold
pKd (APBA1_2, Q02410; [1]): below the threshold
pKd (GRID2IP_1, A4D2P6; [1]): below the threshold
pKd (PTPN13_1, Q12923; [1]): below the threshold
pKd (NHERF3_4, Q5T2W1; [1]): below the threshold
pKd (DLG1_3, Q12959; [1]): below the threshold

B3: ZNF831, Q5JPB2 (peptide)
chain: DDEDRLVIEI
pKd (DFNB31_1, Q9P202; [1]): below the threshold
pKd (FRMPD1, Q5SYB0; [1]): below the threshold
pKd (LRRC7, Q96NW7; [1]): below the threshold
pKd (IL16_4, Q14005; [1]): 3.77
pKd (NHERF3_3, Q5T2W1; [1]): below the threshold
pKd (MAGI2_2, Q86UL8; [1]): below the threshold
pKd (Inadl_5, Q8NI35; [1]): below the threshold
pKd (DLG1_2, Q12959; [1]): 3.56
pKd (Inadl_2, Q8NI35; [1]): 3.57
pKd (FRMPD4, Q14CM0; [1]): below the threshold
pKd (MAGI2_3, Q86UL8; [1]): below the threshold
pKd (HTRA2, O43464; [1]): below the threshold
pKd (DLG1_1, Q12959; [1]): below the threshold
pKd (APBA2_1, Q99767; [1]): below the threshold
pKd (GRIP1_7, Q9Y3R0; [1]): below the threshold
pKd (DLG2_3, Q15700; [1]): 3.65
pKd (NHERF3_1, Q5T2W1; [1]): below the threshold
pKd (FRMPD3, Q5JV73; [1]): below the threshold
pKd (GRIP2_7, Q9C0E4; [1]): below the threshold
pKd (APBA3_1, O96018; [1]): below the threshold
pKd (APBA1_1, Q02410; [1]): below the threshold
pKd (APBA1_2, Q02410; [1]): below the threshold
pKd (GRID2IP_1, A4D2P6; [1]): below the threshold
pKd (PTPN13_1, Q12923; [1]): below the threshold
pKd (NHERF3_4, Q5T2W1; [1]): below the threshold
pKd (DLG1_3, Q12959; [1]): below the threshold

B4: SARS-CoV-E, P59637 (peptide)
chain: NLNSSEGVPDLLV
pKd (DFNB31_1, Q9P202; [2]): below the threshold
pKd (FRMPD1, Q5SYB0; [2]): below the threshold
pKd (LRRC7, Q96NW7; [2]): below the threshold
pKd (IL16_4, Q14005; [2]): below the threshold
pKd (NHERF3_3, Q5T2W1; [2]): below the threshold
pKd (MAGI2_2, Q86UL8; [2]): below the threshold
pKd (Inadl_5, Q8NI35; [2]): below the threshold
pKd (DLG1_2, Q12959; [2]): below the threshold
pKd (Inadl_2, Q8NI35; [2]): below the threshold
pKd (FRMPD4, Q14CM0; [2]): below the threshold
pKd (MAGI2_3, Q86UL8; [2]): below the threshold
pKd (HTRA2, O43464; [2]): below the threshold
pKd (DLG1_1, Q12959; [2]): below the threshold
pKd (APBA2_1, Q99767; [2]): below the threshold
pKd (GRIP1_7, Q9Y3R0; [2]): 4.04
pKd (DLG2_3, Q15700; [2]): below the threshold
pKd (NHERF3_1, Q5T2W1; [2]): below the threshold
pKd (FRMPD3, Q5JV73; [2]): below the threshold
pKd (GRIP2_7, Q9C0E4; [2]): below the threshold
pKd (APBA3_1, O96018; [2]): below the threshold
pKd (APBA1_1, Q02410; [2]): below the threshold
pKd (APBA1_2, Q02410; [2]): below the threshold
pKd (GRID2IP_1, A4D2P6; [2]): below the threshold
pKd (PTPN13_1, Q12923; [2]): below the threshold
pKd (NHERF3_4, Q5T2W1; [2]): below the threshold
pKd (DLG1_3, Q12959; [2]): below the threshold
